In the test the target is human CD22 on cells (Daudi, Raji, Nalm.6, K562-CD22) (human) (UniProt P20273). The experiment in a line: flow cytometry on K562.huCD22.Luc cells against parental K562 cells, 4 C 30 min.

These results are taken from US20230250184A1.

Chain of UniProt P20273 (P20273 20-847): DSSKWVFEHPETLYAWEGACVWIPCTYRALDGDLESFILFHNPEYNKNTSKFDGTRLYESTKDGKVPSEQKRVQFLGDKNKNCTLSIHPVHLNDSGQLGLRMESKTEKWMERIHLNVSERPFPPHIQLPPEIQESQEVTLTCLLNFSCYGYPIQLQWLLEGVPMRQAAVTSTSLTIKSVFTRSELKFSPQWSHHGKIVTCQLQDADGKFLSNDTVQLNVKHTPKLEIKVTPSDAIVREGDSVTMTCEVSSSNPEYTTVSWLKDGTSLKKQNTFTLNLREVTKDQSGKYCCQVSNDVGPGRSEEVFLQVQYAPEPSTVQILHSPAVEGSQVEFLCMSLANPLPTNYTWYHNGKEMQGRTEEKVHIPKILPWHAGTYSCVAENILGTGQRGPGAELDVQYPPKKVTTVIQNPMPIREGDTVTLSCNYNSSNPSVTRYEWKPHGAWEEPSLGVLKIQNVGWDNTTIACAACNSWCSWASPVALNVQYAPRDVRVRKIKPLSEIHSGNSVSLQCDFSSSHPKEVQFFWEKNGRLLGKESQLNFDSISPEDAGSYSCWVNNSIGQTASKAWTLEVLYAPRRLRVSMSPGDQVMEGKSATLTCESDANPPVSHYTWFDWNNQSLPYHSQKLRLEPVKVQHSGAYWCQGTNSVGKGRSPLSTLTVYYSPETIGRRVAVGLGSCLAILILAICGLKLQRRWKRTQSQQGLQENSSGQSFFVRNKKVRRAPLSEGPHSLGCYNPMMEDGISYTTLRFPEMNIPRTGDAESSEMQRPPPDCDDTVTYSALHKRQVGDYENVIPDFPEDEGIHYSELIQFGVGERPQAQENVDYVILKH

In the case of “PE conjugated anti-human CD22 antibody (Miltenyi Biotec, Cat. No. 130-105-086)”, the MFI fold over K562 cells (negative control) came out at 642 fold.
